Laboratory results from publication PMC11648230 (2024).

Molecular target: Aquifex aeolicus TsaD2B^mut2 tetramer (Aquifex aeolicus | Thermotoga maritima, UniProt O66986 1-335)
Assay: ITC

Aquifex aeolicus TsaD2B^mut2 tetramer, sequence (O66986 whole entry, chain 1 of 2): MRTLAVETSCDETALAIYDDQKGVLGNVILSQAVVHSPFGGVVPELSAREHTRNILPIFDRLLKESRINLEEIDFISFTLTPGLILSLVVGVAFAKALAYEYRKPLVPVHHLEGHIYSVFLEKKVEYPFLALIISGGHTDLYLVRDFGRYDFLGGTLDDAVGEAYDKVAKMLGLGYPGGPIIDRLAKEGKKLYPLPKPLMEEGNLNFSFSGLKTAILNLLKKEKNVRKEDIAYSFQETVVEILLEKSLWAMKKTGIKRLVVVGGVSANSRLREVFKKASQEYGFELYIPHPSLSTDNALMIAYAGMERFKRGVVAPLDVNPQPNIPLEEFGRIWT
Aquifex aeolicus TsaD2B^mut2 tetramer, sequence (chain, as listed by the source, chain 2 of 2): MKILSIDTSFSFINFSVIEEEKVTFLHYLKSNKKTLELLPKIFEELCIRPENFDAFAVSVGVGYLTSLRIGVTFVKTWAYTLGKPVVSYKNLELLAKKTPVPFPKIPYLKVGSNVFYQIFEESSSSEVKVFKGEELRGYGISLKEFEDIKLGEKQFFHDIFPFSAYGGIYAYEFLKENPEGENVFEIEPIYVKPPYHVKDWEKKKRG

Kd: 2870 nM
B1: Aquifex aeolicus TsaE (enzyme)
chain: MELLKEVILESEEDTYKLAEEIAQLLKGSEVICLRGTLGAGKTTFVKALAKALKVKNPSAVRSPTFTLVNEYETDKGKLIHIDLYRVPDFDYSEFIGEGILAVEWEERDKPCDIILEIEILDENKRKVRIYRK
modifications: T. maritima TsaB C-tail WEKKKRG (200-206) grafted after residue 200 of A. aeolicus TsaB (new positions 201-207); C-terminal 6His tag on TsaB omitted; TsaD carries a bound divalent metal (Fe2+ or Zn2+); Cys10 of TsaD seen oxidised (CSO) in the crystal; ITC with TsaE done with AMPPNP/Mg2+
